Assay results: the supplement of paper PMC7877785
± gives the uncertainty stated by the source.

Assay: self-splicing fitness, log relative to wild type (ln ratio); higher = more splicing; Tetrahymena group I intron in knt gene, E. coli kanamycin selection, DiMSum; sequences stand for … in CUCUCU…GGAGGGAAAAGUUAUCAGGCAUGCACCUGGUAGCUAGUCUUUAAACCAAUAGAUUGCAUCGGUUUAAAAGGCAAGACCGUCAAAUUGCGGGAAAGGGGUCAACAGCCGUUCAGUACCAAGUCUCAGGGGAAACUUUGAGAUGGCCUUGCAAAGGGUAUGGUAAUAAGCUGACGGACAUGGUCCUAACCACGCAGCCAAGUCCUAAGUCAACAGAUCUUCUGUUGAUAUGGAUGCAGUUCACAGACUAAAUGUCGGUCGGGGAAGAUGUAUUCUUCUCAUAAGAUAUAGUCGGACCUCUCCUUAAUGGGAGCUAGCGGAUGAAGUGAUGCAACACUGGAGCCGCUGGGAACUAAUUUGUAUGCGAAAGUAUAUUGAUUAGUUUUGGAGUACUCGUGGUCG
How it was run: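 Six replicate transformations of E. coli BL21(DE3) with a pET-22b(+) library were grown overnight at 37°C or 30°C. The library randomised all eight P1ex-region intron nucleotides, the intron lying in the knt kanamycin-resistance gene, and plates were LB agar with or without 25 μg/mL kanamycin plus 100 μg/mL carbenicillin, 50 μM IPTG and 0.2% rhamnose. Pooled colonies were amplicon-sequenced on an Illumina HiSeq 2500, and fitness is the DiMSum error-weighted combination of wild-type-normalised replicate fold changes, kanamycin versus none.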

Sequence	self-splicing fitness (ln) (30 °C)	self-splicing fitness (ln) (37 °C)
UAGUAGCAAUAUUACGAUGA	-1.59 ± 0.26	-1.7 ± 0.28
ACAGAGCAAUAUUACGGAGU	-3.05 ± 0.23	-3.24 ± 0.35
GGCCAGCAAUAUUACGAUCC	-0.826 ± 0.11	0.0889 ± 0.14
UAUUAGCAAUAUUACGGAUA		-0.897 ± 0.46
UAUCAGCAAUAUUACGAUGG	-0.913 ± 0.062	0.0535 ± 0.083
CAUGAGCAAUAUUACGUAAA	-3.16 ± 0.15	-3.43 ± 0.32
UAAGAGCAAUAUUACGAGGA	-3.37 ± 0.29	-2.25 ± 0.35
ACAAAGCAAUAUUACGCCCA	-1.24 ± 0.11	-0.225 ± 0.13
ACCGAGCAAUAUUACGCUAC	-3.58 ± 0.19	-2.86 ± 0.24
UCCCAGCAAUAUUACGUACC		0.327 ± 0.33
UGGUAGCAAUAUUACGACAA	-0.344 ± 0.41	-0.278 ± 0.31
AGAAAGCAAUAUUACGCAUC	-2.53 ± 0.34	
GAGAAGCAAUAUUACGGUUG	-2.18 ± 0.1	-1.99 ± 0.14
UAUAAGCAAUAUUACGUCUG	-0.517 ± 0.081	0.316 ± 0.098
GACUAGCAAUAUUACGAUCG	-1.24 ± 0.13	-0.31 ± 0.21
GUUCAGCAAUAUUACGGACC		-2.8 ± 0.38
AGUUAGCAAUAUUACGCUAU	-2.29 ± 0.17	-1.21 ± 0.14
CGCCAGCAAUAUUACGAGCC	-1.63 ± 0.14	-0.446 ± 0.18
UUCGAGCAAUAUUACGAUGU	-3.71 ± 0.46	-2.7 ± 0.25
AUACAGCAAUAUUACGGGAA	-2.72 ± 0.17	-1.51 ± 0.13
CUGAAGCAAUAUUACGGAUA	-4.19 ± 0.22	-1.19 ± 0.18
GGCUAGCAAUAUUACGCGUC	-2.06 ± 0.24	0.0137 ± 0.14
AGUGAGCAAUAUUACGGAGU	-2.86 ± 0.3	-3.09 ± 0.35
AAAGAGCAAUAUUACGUGCA	-2.3 ± 0.14	-1.19 ± 0.13
CAUCAGCAAUAUUACGAGAG	-1.9 ± 0.072	-0.955 ± 0.075

Sequence	self-splicing fitness (ln) (30 °C)	self-splicing fitness (ln) (37 °C)
UUCCAGCAAUAUUACGGAAU	-3.81 ± 0.26	-2.77 ± 0.28
GGUCAGCAAUAUUACGAUGA	-0.626 ± 0.087	0.0621 ± 0.099
UUGAAGCAAUAUUACGUCCA	0.231 ± 0.094	0.472 ± 0.12
UGCAAGCAAUAUUACGCGUG	-3.54 ± 0.14	-3.15 ± 0.2
AGACAGCAAUAUUACGGAGU	-4.06 ± 0.16	-2.28 ± 0.13
UAUGAGCAAUAUUACGCAAA	-2.74 ± 0.45	
GUAUAGCAAUAUUACGGGCG	-2.27 ± 0.17	-0.207 ± 0.18
CGUUAGCAAUAUUACGCGUA		-0.996 ± 0.25
UACUAGCAAUAUUACGGGGG	-2.19 ± 0.12	-1.31 ± 0.14
GGGGAGCAAUAUUACGUUCG	-2.01 ± 0.18	-0.941 ± 0.16
CGACAGCAAUAUUACGACGA	-1.01 ± 0.12	0.0299 ± 0.14
ACAAAGCAAUAUUACGACGC	-0.112 ± 0.044	0.422 ± 0.066
GCUCAGCAAUAUUACGAAUU	-1.04 ± 0.064	0.155 ± 0.087
UGUCAGCAAUAUUACGUUUC		-2.07 ± 0.28
AAGUAGCAAUAUUACGAAUG	-3.14 ± 0.24	-1.72 ± 0.14
ACCCAGCAAUAUUACGAUAA	-2.15 ± 0.091	-0.0251 ± 0.098
UUGUAGCAAUAUUACGUGUC	-3.17 ± 0.15	
CUUCAGCAAUAUUACGGUGA	-3.2 ± 0.21	-2.67 ± 0.18
CCGGAGCAAUAUUACGGCAG	-3.21 ± 0.24	-3.16 ± 0.33
CAUCAGCAAUAUUACGUAGU	-1.66 ± 0.04	-0.682 ± 0.06
AUGAAGCAAUAUUACGGCUC	-0.602 ± 0.12	0.254 ± 0.13
UCCGAGCAAUAUUACGUAUA	-3.79 ± 0.29	-2.54 ± 0.24
CCUCAGCAAUAUUACGAAUA	-1.54 ± 0.2	-2.78 ± 0.4
CCUGAGCAAUAUUACGUCAG	-2.64 ± 0.099	-2.19 ± 0.099
CAGGAGCAAUAUUACGGUGA	-2.96 ± 0.22	-3 ± 0.27
